± gives the uncertainty stated by the source.

B1: Nuclear receptor subfamily 4 group A member 2, residues 260 to 336; numbered along this chain, P43354 (parent)
chain: EGLCAVCGDNAACQHYGVRTCEGCKGFFKRTVQKNAKYVCLANKNCPVDKRRRNRCQYCRFQKCLAVGMVKEVVRTD

The series covers variants of B1. Briefly: abundance fitness (aPCA) (normalised: wild type 0, dead -1); higher = more abundant; growth selection in yeast, the domain comes from the species named. The following applies: Homo sapiens.
In the case of EGLCAVCGDNAACQHYGVRTCEGCKGFFKRQVQKNAKYVCLANKNCPVDKRRRNRCQYCRFQKCLAVGMVKEVVRTD [T31Q], the abundance fitness was -0.167 ± 0.45. Take EGLCAVCGDNAACQHYGVRTCEGCKGFFKRRVQKNAKYVCLANKNCPVDKRRRNRCQYCRFQKCLAVGMVKEVVRTD [T31R]: the abundance fitness was -0.126 ± 0.22. As for EGLCAVCGDNAACQHYGVRTCEGCKGFFKRVVQKNAKYVCLANKNCPVDKRRRNRCQYCRFQKCLAVGMVKEVVRTD [T31V], the figure is -0.061 ± 0.33. The same measure for EGLCAVCGDNAACQHYGVRTCEGCKGFFKRTVQGNAKYVCLANKNCPVDKRRRNRCQYCRFQKCLAVGMVKEVVRTD [K34G]: 0.05 ± 0.12; for EGLCAVCGDNAACQHYGVRTCEGCKGFFKRTVQRNAKYVCLANKNCPVDKRRRNRCQYCRFQKCLAVGMVKEVVRTD [K34R]: -0.243 ± 0.24.

In the case of EGLCAVCGDNAACQHYGVRTCEGCKGFFKRTVQSNAKYVCLANKNCPVDKRRRNRCQYCRFQKCLAVGMVKEVVRTD [K34S], the abundance fitness is -0.051 ± 0.21. As for EGLCAVCGDNAACQHYGVRTCEGCKGFFKRTVQWNAKYVCLANKNCPVDKRRRNRCQYCRFQKCLAVGMVKEVVRTD [K34W], the figure is -0.227 ± 0.49; as for EGLCAVCGDNAACQHYGVRTCEGCKGFFKRTVQCNAKYVCLANKNCPVDKRRRNRCQYCRFQKCLAVGMVKEVVRTD [K34C], -0.033 ± 0.41. Turning to EGLCAVCGDNAACQHYGVRTCEGCKGFFKRTVQVNAKYVCLANKNCPVDKRRRNRCQYCRFQKCLAVGMVKEVVRTD [K34V], the abundance fitness was -0.037 ± 0.23. Turning to EGLCAVCGDNAACQHYGVRTCEGCKGFFKRTVLKNAKYVCLANKNCPVDKRRRNRCQYCRFQKCLAVGMVKEVVRTD [Q33L], the abundance fitness was -0.049 ± 0.25. On to EGLCAVCGDNAACQHYGVRTCEGCKGFFKRTVKKNAKYVCLANKNCPVDKRRRNRCQYCRFQKCLAVGMVKEVVRTD [Q33K], for which the abundance fitness was -0.035 ± 0.23. As to EGLCAVCGDNAACQHYGVRTCEGCKGFFKRTVRKNAKYVCLANKNCPVDKRRRNRCQYCRFQKCLAVGMVKEVVRTD [Q33R], the abundance fitness is -0.252 ± 0.37.

Consider EGLCAVCGDNAACQHYGVRTCEGCKGFFKITVQKNAKYVCLANKNCPVDKRRRNRCQYCRFQKCLAVGMVKEVVRTD [R30I], for which the abundance fitness is -0.163 ± 0.23. As to EGLCAVCGDNAACQHYGVRTCEGCKGFFKETVQKNAKYVCLANKNCPVDKRRRNRCQYCRFQKCLAVGMVKEVVRTD [R30E], the abundance fitness was -0.105 ± 0.14. As for EGLCAVCGDNAACQHYGVRTCEGCKGFFKGTVQKNAKYVCLANKNCPVDKRRRNRCQYCRFQKCLAVGMVKEVVRTD [R30G], the figure is -0.235 ± 0.072.

Take EGLCAVCGDNAACQHYGVRTCEGCKGFFKQTVQKNAKYVCLANKNCPVDKRRRNRCQYCRFQKCLAVGMVKEVVRTD [R30Q]: the abundance fitness was -0.005 ± 0.13. In the case of EGLCAVCGDNAACQHYGVRTCEGCKGFFKWTVQKNAKYVCLANKNCPVDKRRRNRCQYCRFQKCLAVGMVKEVVRTD [R30W], the abundance fitness was -0.16 ± 0.096. The same measure for EGLCAVCGDNAACQHYGVRTCEGCKGFFKFTVQKNAKYVCLANKNCPVDKRRRNRCQYCRFQKCLAVGMVKEVVRTD [R30F]: -0.032 ± 0.36; for EGLCAVCGDNAACQHYGVRTCEGCKGFFKDTVQKNAKYVCLANKNCPVDKRRRNRCQYCRFQKCLAVGMVKEVVRTD [R30D]: -0.032 ± 0.28. As to EGLCAVCGDNAACQHYGVRTCEGCKGFFKKTVQKNAKYVCLANKNCPVDKRRRNRCQYCRFQKCLAVGMVKEVVRTD [R30K], the abundance fitness is -0.016 ± 0.38.

For EGLCAVCGDNAACQHYGVRTCEGCKGFFKMTVQKNAKYVCLANKNCPVDKRRRNRCQYCRFQKCLAVGMVKEVVRTD [R30M], the abundance fitness was -0.148 ± 0.2. Consider EGLCAVCGDNAACQHYGVRTCEGCKGFFKCTVQKNAKYVCLANKNCPVDKRRRNRCQYCRFQKCLAVGMVKEVVRTD [R30C], for which the abundance fitness is -0.086 ± 0.19. As for EGLCAVCGDNAACQHYGVRTCEGCKGFFKNTVQKNAKYVCLANKNCPVDKRRRNRCQYCRFQKCLAVGMVKEVVRTD [R30N], the figure is -0.126 ± 0.17; as for EGLCAVCGDNAACQHYGVRTCEGCKGFFKSTVQKNAKYVCLANKNCPVDKRRRNRCQYCRFQKCLAVGMVKEVVRTD [R30S], -0.086 ± 0.092; as for EGLCAVCGDNAACQHYGVRTCEGCKGFFKVTVQKNAKYVCLANKNCPVDKRRRNRCQYCRFQKCLAVGMVKEVVRTD [R30V], -0.216 ± 0.086. Turning to EGLCAVCGDNAACQHYGVRTCEGCKGFFKTTVQKNAKYVCLANKNCPVDKRRRNRCQYCRFQKCLAVGMVKEVVRTD [R30T], the abundance fitness is -0.028 ± 0.13.

With EGLCAVCGDNAACQHYGVRTCEGCKGFYKRTVQKNAKYVCLANKNCPVDKRRRNRCQYCRFQKCLAVGMVKEVVRTD [F28Y], the abundance fitness was 0.23 ± 0.26. Regarding EGLCAVCGDNAACQHYGVRTCEGCKGFWKRTVQKNAKYVCLANKNCPVDKRRRNRCQYCRFQKCLAVGMVKEVVRTD [F28W], the abundance fitness was -0.095 ± 0.066. The same measure for EGLCAVCGDNAACQHYGVRTCEGCKGFTKRTVQKNAKYVCLANKNCPVDKRRRNRCQYCRFQKCLAVGMVKEVVRTD [F28T]: -0.049 ± 0.083; for EGLCAVCGDNAACQHYGVRTCEGCKGFVKRTVQKNAKYVCLANKNCPVDKRRRNRCQYCRFQKCLAVGMVKEVVRTD [F28V]: -0.017 ± 0.054; for EGLCAVCGDNAACQHYGVRTCEGCKGFFKRTVQKSAKYVCLANKNCPVDKRRRNRCQYCRFQKCLAVGMVKEVVRTD [N35S]: -0.198 ± 0.085.

For EGLCAVCGDNAACQHYGVRTCEGCKGFFKRTVQKMAKYVCLANKNCPVDKRRRNRCQYCRFQKCLAVGMVKEVVRTD [N35M], the abundance fitness is -0.173 ± 0.11. As for EGLCAVCGDNAACQHYGVRTCEGCKGFFKRTVQKWAKYVCLANKNCPVDKRRRNRCQYCRFQKCLAVGMVKEVVRTD [N35W], the figure is -0.407 ± 0.12. The same measure for EGLCAVCGDNAACQHYGVRTCEGCKGFFKRTVQKHAKYVCLANKNCPVDKRRRNRCQYCRFQKCLAVGMVKEVVRTD [N35H]: -0.13 ± 0.14; for EGLCAVCGDNAACQHYGVRTCEGCKGFFKRTVQKYAKYVCLANKNCPVDKRRRNRCQYCRFQKCLAVGMVKEVVRTD [N35Y]: -0.139 ± 0.15.

Source of the values: the Human Domainome abundance scans (Beltran et al. 2025).
